Measurements reported in US20200407442A1 (WUXI BIOLOGICS IRELAND, published 2020).

Key:
[1] = target: T1, human LAG-3-ECD.D12.mFc mutant L134A (human, UniProt P18627 37-252); assay: ELISA, antibody coated, LAG-3 D12.mFc mutant in supernatant, normalised to control mutants
T1 construct: Alanine scanning mutant; construct limits as for m26
T1 chain: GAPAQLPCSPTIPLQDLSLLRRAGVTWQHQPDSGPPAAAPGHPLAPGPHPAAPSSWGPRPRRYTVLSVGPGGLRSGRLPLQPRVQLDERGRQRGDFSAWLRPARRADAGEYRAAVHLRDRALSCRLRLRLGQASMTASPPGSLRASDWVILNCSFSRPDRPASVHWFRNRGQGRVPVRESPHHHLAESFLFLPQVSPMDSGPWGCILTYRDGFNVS
In short: (§1)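 Antibody 1.53.3-uAb-IgG4k or 3.40.19-uAb-hIgG4L coated at 2 μg/mL, then exposed to supernatant containing quantified LAG-3 D12.mFc mutants. Detection with HRP anti-mFc (1:5000). Absorbance normalized to mean of control mutants; binding fold change <0.75 set as epitope cutoff.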

[2] = target: T2, human LAG-3-ECD.D12.mFc mutant T62A (human, UniProt P18627 37-252); assay: as above
T2 construct: Alanine scanning mutant; construct limits as for m26
T2 chain: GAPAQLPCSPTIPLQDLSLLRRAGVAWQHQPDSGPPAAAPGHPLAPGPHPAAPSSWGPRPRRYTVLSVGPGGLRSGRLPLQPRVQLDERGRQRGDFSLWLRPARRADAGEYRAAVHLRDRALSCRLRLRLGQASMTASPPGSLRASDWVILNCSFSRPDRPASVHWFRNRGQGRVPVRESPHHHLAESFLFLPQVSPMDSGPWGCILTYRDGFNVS
In short: as §1

[3] = target: T3, human LAG-3-ECD.D12.mFc mutant W135A (human, UniProt P18627 37-252); assay: as above
T3 construct: Alanine scanning mutant; construct limits as for m26
T3 chain: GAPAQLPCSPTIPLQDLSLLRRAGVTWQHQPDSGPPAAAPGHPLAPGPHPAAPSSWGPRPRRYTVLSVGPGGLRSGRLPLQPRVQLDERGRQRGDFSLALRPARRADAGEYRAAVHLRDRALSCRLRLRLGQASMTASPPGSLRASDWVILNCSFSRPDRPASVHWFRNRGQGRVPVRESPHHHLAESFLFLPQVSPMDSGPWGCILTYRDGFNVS
In short: as §1

[4] = target: T4, full-length human LAG-3 on cells (human, UniProt P18627 23-525); assay: FACS competition on Flp-In-293 cells expressing human LAG-3: biotinylated BMK5 at 1 ug/mL, serially diluted antibody, Streptavidin-PE
T4 construct: Expressed on Flp-In-293, CHO or 293F transfectants; also called hPro1.FL; cell surface human LAG-3
T4 sequence: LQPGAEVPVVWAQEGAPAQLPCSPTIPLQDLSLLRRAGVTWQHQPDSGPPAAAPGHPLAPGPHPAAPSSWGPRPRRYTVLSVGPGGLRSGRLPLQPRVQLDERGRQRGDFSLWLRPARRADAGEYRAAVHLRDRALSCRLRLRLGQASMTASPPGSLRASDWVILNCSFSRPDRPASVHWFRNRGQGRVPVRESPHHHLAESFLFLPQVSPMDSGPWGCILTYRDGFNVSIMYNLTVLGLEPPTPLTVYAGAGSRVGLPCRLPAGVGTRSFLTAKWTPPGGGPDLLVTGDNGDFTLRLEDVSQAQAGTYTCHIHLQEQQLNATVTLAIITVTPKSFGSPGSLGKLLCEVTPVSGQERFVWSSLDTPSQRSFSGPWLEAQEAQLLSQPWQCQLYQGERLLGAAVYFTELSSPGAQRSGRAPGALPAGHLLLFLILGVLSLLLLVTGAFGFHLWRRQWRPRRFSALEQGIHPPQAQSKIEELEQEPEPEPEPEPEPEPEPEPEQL
Protocol: The binding epitope of LAG-3 antibodies was binned against benchmark antibodies BMK1, BMK7 and BMK5 by FACS assay. Flp-In-293 cells expressing human LAG-3 at the cell surface were incubated with biotinylated benchmark antibodies at concentration of 1 μg/mL for 1 hour, followed by the adding of serially diluted LAG-3 antibodies. Streptavidin-PE antibody (Jackson Immunoresearch Lab) was used to detect the binding of benchmark antibodies to cells. The MFI was evaluated by flow cytometry and analyzed by FlowJo.

[5] = target: T5, full-length mouse LAG-3 on cells (mouse, UniProt Q61790 24-521); assay: FACS on murine LAG-3-expressing Flp-In-CHO cells, MFI
T5 construct: also called mPro1.FL; murine LAG-3
T5 sequence: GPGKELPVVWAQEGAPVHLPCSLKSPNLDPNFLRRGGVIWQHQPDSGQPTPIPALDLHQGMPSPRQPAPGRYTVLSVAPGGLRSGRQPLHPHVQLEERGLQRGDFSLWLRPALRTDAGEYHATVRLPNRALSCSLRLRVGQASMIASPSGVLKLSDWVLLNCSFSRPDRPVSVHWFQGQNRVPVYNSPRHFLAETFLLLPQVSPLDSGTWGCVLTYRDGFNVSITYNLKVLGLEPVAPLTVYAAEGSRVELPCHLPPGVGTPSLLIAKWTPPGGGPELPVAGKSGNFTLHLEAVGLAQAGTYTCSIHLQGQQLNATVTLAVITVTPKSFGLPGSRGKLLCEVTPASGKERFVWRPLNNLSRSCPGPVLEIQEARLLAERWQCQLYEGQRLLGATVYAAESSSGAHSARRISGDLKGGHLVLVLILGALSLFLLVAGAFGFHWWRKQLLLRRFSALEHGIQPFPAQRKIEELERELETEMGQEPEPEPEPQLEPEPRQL
Protocol: Cross-reactivity to cynomolgus and murine LAG-3 was measured by FACS. Murine LAG-3-expressing Flp-In-CHO cells or cynomolgus LAG-3-expressing 293F cells were transferred into 96-well U-bottom plates at a density of 1×10⁵ cells/well. Testing antibodies were serially diluted in wash buffer (1×PBS/1%BSA) and incubated with cells at 4° C. for 1 h. After washing with 1×PBS/1%BSA, corresponding secondary antibody was applied and incubated with cells at 4 ° C. in the dark for 1 h. The cells were then washed and resuspended in 1×PBS/1%BSA and then analyzed by flow cytometry.

| Binder | Fold Change [1] | Fold Change [2] | Fold Change [3] | IC50 (read off the curve) [4] [nM] | binding result [5] |
| --- | --- | --- | --- | --- | --- |
| 3.40.19-uAb-IgG4L (antibody, V domains shown, Fully human antibody from OMT rats; IgG4 lambda by its name; also called 3.40.19-uAb-hIgG4L) VH: QLQLQESGPGLVKPSETLSLTCTVSGDSISSTSYYWGWIRQPPGKGLEWIGSFYYSGSTYYNPSLKSRVTISVDTSKNQFSLKLNSVTAADTAVYYCARMQLWSYDVDVWGQGTTVTVSS VL: QSALTQPASVSGSPGQSITISCTGTSSDVGGYDYVAWYQQHPGKVPKLMIYDVSERPSGVSNRFSGSKSGNTASLTISGLQAEDEADYYCSSYTSTTTLVVFGGGTKLSVL | 0.04 | 0.727 | 0.049 |  |  |
| 1.53.3-uAb-IgG4k (antibody, V domains shown, Fully human antibody from OMT rats; IgG4 kappa by its name) VH: QVQLQQWGAGLLKPSETLSLTCGVYGGSFSGYYWSWIRQPPGMGLEWIGEINHRGNTNYNPSLKSRVTISEDTSKNQFSLRLSSVTAADTAVYFCTRGEDYSDYDYYGDFWGQGTLVTVSS VL: EIVLTQSPATLSLSQGERATLSCRASQSISSYLAWYQQKPGQAPRLLIYAASNRATGIPARFSGSGSGTDFTLTISSLEPEDFAIYYCQQRSNWPLTFGGGTKVEIK |  |  |  | ~1 | no binding (tested: 6.7 nM) |
